Experiments:
HrAgo1 [1] = target: T1, HrAgo1 (Candidatus Harpocratesius repetitus …, UniProt A0AAT8XUE3 1-817); test: cryo-EM structure; 5 mM MgCl2; smFRET: 50 mM Tris-HCl pH 8.0, 500 mM NaCl (50 mM for EfPiwi), 1 mM Trolox, glucose oxidase/catalase, 22 C; cryo-EM: 5 mM HEPES pH 7.5, 250 mM KCl, 5 mM MgCl2; conditions: protein: recombinant; tags: His-MBP removed by TEV; single strand; only 6 nt modelled
T1 sequence: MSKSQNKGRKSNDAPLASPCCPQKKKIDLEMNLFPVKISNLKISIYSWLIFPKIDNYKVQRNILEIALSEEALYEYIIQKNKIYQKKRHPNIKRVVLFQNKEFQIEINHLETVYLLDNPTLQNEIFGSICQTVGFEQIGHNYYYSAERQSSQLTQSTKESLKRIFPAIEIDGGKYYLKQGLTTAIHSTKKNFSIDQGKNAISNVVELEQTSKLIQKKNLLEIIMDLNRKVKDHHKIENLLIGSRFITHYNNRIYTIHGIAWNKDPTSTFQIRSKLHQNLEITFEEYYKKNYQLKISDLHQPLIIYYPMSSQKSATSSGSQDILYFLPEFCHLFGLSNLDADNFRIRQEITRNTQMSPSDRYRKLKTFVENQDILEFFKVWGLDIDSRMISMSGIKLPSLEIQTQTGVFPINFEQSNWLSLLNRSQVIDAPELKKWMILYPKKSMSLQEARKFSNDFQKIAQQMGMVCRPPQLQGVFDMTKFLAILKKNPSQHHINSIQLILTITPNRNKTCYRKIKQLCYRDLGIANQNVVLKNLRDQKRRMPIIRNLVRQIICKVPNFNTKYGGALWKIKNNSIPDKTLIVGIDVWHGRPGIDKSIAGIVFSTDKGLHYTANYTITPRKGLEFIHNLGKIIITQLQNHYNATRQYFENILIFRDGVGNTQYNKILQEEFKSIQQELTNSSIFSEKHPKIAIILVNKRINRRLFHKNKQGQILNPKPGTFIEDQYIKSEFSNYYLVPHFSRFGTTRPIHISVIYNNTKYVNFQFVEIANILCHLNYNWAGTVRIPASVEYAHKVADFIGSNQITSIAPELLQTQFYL

HrAgo1 [2] = target: T1, HrAgo1; test: single-molecule FRET; 500 mM NaCl; majority dwell > 200 s, plus transient sub-population; smFRET: 50 mM Tris-HCl pH 8.0, 500 mM NaCl (50 mM for EfPiwi), 1 mM Trolox, glucose oxidase/catalase, 22 C; cryo-EM: 5 mM HEPES pH 7.5, 250 mM KCl, 5 mM MgCl2; conditions: protein: recombinant, tags: His-MBP removed by TEV, label: Cy5 guide, Cy3 target, 3' biotin target
HrAgo1 [3] = target: T1, HrAgo1; test: single-molecule FRET; 500 mM NaCl; stable binding, dwell > 200 s; smFRET: 50 mM Tris-HCl pH 8.0, 500 mM NaCl (50 mM for EfPiwi), 1 mM Trolox, glucose oxidase/catalase, 22 C; cryo-EM: 5 mM HEPES pH 7.5, 250 mM KCl, 5 mM MgCl2; conditions: protein: recombinant; tags: His-MBP removed by TEV; label: Cy5 guide, Cy3 target, 3' biotin target; guide nt 2-16 pair

UGAGGUAGUAGGUUGUAUAGU (ssRNA, 5' phosphate) [let-7a guide RNA (cryo-EM)]: binds (HrAgo1 [1]).

B1: guide N6 / target N6 (dsRNA)
RNA 1: UGAGGUAUUUUUUUUUUUUUUU
RNA 2: UUUUUUUUUUUUUUUUUUUCUACCUCUUUUUUUUUUUUUUUUUUUUUUUUUUUUUUU
modifications: guide 5' phosphate; 5-LC-N-U at guide nt 9 and target nt 11
B1: binds (HrAgo1 [2]; guide nt 2-7 pair).

B2: guide N8 / target N8 (dsRNA)
RNA 1: UGAGGUAGUUUUUUUUUUUUUU
RNA 2: UUUUUUUUUUUUUUUUUUACUACCUCUUUUUUUUUUUUUUUUUUUUUUUUUUUUUUU
modifications: guide 5' phosphate; 5-LC-N-U at guide nt 9 and target nt 11
B2: binds (HrAgo1 [2]; guide nt 2-9 pair).

B3: guide N15 / target N15 (dsRNA)
RNA 1: UGAGGUAGUAGGUUGUUUUUUU
RNA 2: UUUUUUUUUUUACAACCUACUACCUCUUUUUUUUUUUUUUUUUUUUUUUUUUUUUUU
modifications: guide 5' phosphate; 5-LC-N-U at guide nt 9 and target nt 11
B3: binds (HrAgo1 [3]).
